PMC8629256, “Structural and functional studies of D109A human αB-crystallin contributing to the development of cataract and cardiomyopathy diseases” (PLoS ONE, 2021)

B1: wild-type human αB-crystallin (natural protein)
chain: MDIAIHHPWIRRPFFPFHSPSRLFDQFFGEHLLESDLFPTSTSLSPFYLRPPSFLRAPSWFDTGLSEMRLEKDRFSVNLDVKHFSPEELKVKVLGDVIEVHGKHEERQDEHGFISREFHRKYRIPADVDPLTITSSLSSDGVLTVNGPRKQVSGPERTIPITREEKPAVTAAPKK
notes: human αB-crystallin (HSPB5), 175 amino acids, coded by CRYAB; cDNA cloned in pET-28b(+); Polydisperse oligomer; 32 subunits is the number worked out for the majority species in AUC (about 650 kDa); also called heat shock protein β5; HSPB5; source: E. coli BL21 (DE3), purified (DEAE-cellulose anion exchange in urea buffer, dialysed against water); copies: 32
B2: D109A mutant human αB-crystallin (natural protein)
chain: MDIAIHHPWIRRPFFPFHSPSRLFDQFFGEHLLESDLFPTSTSLSPFYLRPPSFLRAPSWFDTGLSEMRLEKDRFSVNLDVKHFSPEELKVKVLGDVIEVHGKHEERQAEHGFISREFHRKYRIPADVDPLTITSSLSSDGVLTVNGPRKQVSGPERTIPITREEKPAVTAAPKK
notes: human αB-crystallin (HSPB5) with the patient mutation D109A (cDNA 326 A>C), made by site-directed mutagenesis of the wild-type cDNA in pET-28b(+); Polydisperse oligomer; 53 subunits is the number worked out for the majority species in AUC (about 1,060 kDa); larger ensembles of 1500-3000 kDa are also seen; The mutation is reported in patients with myofibrillar myopathy; No tag is named; see the …

Biological target: the molecule itself
Test: AUC; sedimentation velocity, 20 °C, 40,000 rpm, 40 mM sodium phosphate, 100 mM NaCl, 1 mM EDTA, 3 mM NaN3, pH 7.0; wild type 1.0 mg/mL, D109A 0.5 mg/mL; c(s) and c(M) by SEDFIT; run after dialysis and again after 24 h at 20 °C; size of the oligomer

| Protein | stoichiometry N [subunits] |
| --- | --- |
| B1 | 32 |
| B2 | 53 |
